# Data taken from patent US20050170451A1.
# B1: αFcR51 scFv (human anti-human FcεRI α chain single-chain Fv clone) (scFv, part only; not given: VH-VL linker and E tag, V domains shown, not shown: another chain or arm of the molecule; small tags and cut ends)
# VH: QVQLQEWGGGLVQPGGSLRLSCAASGFTVSSNYMSWVRQAPGKGLEWVSVIYRGGSGDNTYYAGSVKGRFTISRDNSKNTVYLQMNSLRAEDTAVYYCVRSSDVGYGILRGYMDVWGKGTTVTVSS
# VL: HVILTQPPSVSVSPGQTARIPCSGQDLTNKYVSWYQLQSGQSPALVIYEDSKRPSGIPERFSGSNSGDTATLTITGTQAADEADFFCQAYDTNGWVFGAGTKLTVL
# Assays:
# [1] = target: soluble fragment of human IgE receptor (FcεRI) α chain (human) (UniProt P12319); assay: SPR (BIAcore), purified scFv
# UniProt P12319, sequence (P12319 26-197 limits assumed): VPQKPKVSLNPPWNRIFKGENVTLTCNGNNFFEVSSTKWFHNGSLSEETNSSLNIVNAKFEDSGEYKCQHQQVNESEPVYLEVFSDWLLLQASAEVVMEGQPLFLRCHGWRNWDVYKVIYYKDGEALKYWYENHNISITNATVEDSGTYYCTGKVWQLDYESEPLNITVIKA
# [2] = target: soluble fragment of human IgE receptor (FcεRI) α chain (human) (UniProt P12319); assay: competition ELISA: inhibition of binding of biotin-labeled FcεRI α chain (55 ng/mL) to immobilized human IgE
# [3] = target: soluble fragment of human IgE receptor (FcεRI) α chain (human) (UniProt P12319); assay: competition ELISA: inhibition of binding of biotin-labeled FcεRI α chain (55 ng/mL) to immobilized human IgE, at scFv >= 100 µg/ml
binder,measurement,setting,value
B1,Kd,[1],5.8 nM
same,scFv concentration at which inhibition is seen,[2],> 0.1 µg/mL
same,inhibition rate,[3],> 90%
